Consider 4 molecules from US20220380471A1 (US Dept. of Health and Human Services, published 2022).

For assay [1], the target named is T1, monkey B7H3-His (monkey).
T1 chain: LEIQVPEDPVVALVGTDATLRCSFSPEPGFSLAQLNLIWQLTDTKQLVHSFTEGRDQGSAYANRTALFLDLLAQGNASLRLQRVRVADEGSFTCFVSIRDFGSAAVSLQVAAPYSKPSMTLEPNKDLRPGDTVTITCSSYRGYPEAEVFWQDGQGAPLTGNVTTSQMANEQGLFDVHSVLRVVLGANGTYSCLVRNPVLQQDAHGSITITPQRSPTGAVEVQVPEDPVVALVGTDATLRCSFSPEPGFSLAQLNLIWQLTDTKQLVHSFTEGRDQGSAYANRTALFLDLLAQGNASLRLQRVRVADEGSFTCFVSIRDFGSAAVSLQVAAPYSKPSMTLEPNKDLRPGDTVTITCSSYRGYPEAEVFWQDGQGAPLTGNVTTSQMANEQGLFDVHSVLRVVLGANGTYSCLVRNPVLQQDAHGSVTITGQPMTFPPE
In words: ELISA; row Monkey; well 1 of 3. In outline: (§1)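 Camel VHH nanobodies were isolated by phage panning on recombinant B7H3-Fc and then purified. Their binding to immobilised recombinant proteins (B7H3 fusion proteins and non-B7H3 control proteins) was measured by ELISA and recorded as the ELISA signal.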

The target of the next assay is B7H3 R&D. The assay can be described thus: ELISA; row B7H3 R&D; well 3 of 3. The method in brief: as §1
Assay [2] concerns the target T1, monkey B7H3-His. In words: phage ELISA, cross-species. In outline:
(§2)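 Camel VHH phage were panned on recombinant B7H3-Fc protein for 3 rounds, using libraries from eight individual camels. Binding of the selected phage to immobilised antigens (human and other-species B7H3 or control proteins) was measured by phage ELISA and recorded as the ELISA signal.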
Background: ELISA stands for enzyme-linked immunosorbent assay.

In another assay the target is Non-relevant antigen. The assay can be described thus: phage ELISA, cross-species. The method in brief: as §2
The target of assay [3] is T2, human B7H3 (human, UniProt Q5ZPR3 29-466, limits assumed).
T2 construct: also called human B7H3 protein
T2 sequence (looked up): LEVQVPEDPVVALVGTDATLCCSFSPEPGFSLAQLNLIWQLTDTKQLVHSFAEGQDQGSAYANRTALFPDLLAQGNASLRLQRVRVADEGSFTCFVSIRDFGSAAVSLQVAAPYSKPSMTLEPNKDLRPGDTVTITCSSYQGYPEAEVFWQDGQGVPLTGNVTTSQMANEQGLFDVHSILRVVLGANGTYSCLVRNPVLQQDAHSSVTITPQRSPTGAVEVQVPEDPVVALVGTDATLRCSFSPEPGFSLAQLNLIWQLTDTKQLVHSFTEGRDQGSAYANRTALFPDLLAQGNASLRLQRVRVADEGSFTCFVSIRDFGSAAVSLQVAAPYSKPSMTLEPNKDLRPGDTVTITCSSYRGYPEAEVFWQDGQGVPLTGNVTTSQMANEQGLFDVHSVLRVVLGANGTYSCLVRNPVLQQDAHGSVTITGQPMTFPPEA
The assay can be described thus: phage ELISA, cross-species. The method in brief: as §2

The target of assay [4] is T2, human B7H3. The assay can be described thus: ELISA; row Human; well 3 of 3. The method in brief: as §1
For the next assay, the target named is HN3-Fc. The assay can be described thus: ELISA; row HN3-Fc; well 1 of 3. The method in brief:
as §1

The next assay has as its target T3, B7H3 peptide 15 (human).
T3 peptide: LRPGDTVTITCSSYQGYP
The assay can be described thus: peptide ELISA (OD450), 18-mer peptides of human B7H3. An excerpt: (§3) FIGS. 21A-21C: G8 cross-reacts with mouse B7H3 and kills mouse cancer cells. (FIG. 21A) Binding activity of anti-B7H3 nanobodies to mouse antigen detected by flow cytometry. […] (FIG. 21C). […] A total of 48 peptides from the human B7H3 protein were designed and synthesized. Each peptide consisted of 18 amino acids and overlapped with adjacent peptides by 9 amino acids. ELISA technology was used to test binding ability of antibody to each peptide. Number indicates the OD₄₅₀ value. […] The peptide sequences are shown below the table. C4 and B12 may have a conformational epitope that couldn't be predicted by a linearized peptide library.
(§4) A total of 48 peptides from the human B7H3 protein were designed and synthesized. Each peptide consisted of 18 amino acids and overlapped with adjacent peptides by 9 amino acids. ELISA technology was used to test binding ability of the antibodies to each peptide (FIG. 21C). […] C4 and B12 may have a conformational epitope that couldn't be predicted by a linearized peptide library.

The target of a further assay is T4, B7H3 peptide 11 (human).
T4 peptide: SFTCFVSIRDFGSAAVSL
The assay is described as above.
Description: as §3, §4

For the next assay, the target named is T5, B7H3 peptide 10 (human).
T5 peptide: QRVRVADEGSFTCFVSIR
The description is as above.
Description: as §3, §4

The next assay concerns the target T6, rat B7H3-His (rat, UniProt Q7TPB4 29-244, limits assumed).
T6 construct: not shown: His tag
T6 sequence (looked up): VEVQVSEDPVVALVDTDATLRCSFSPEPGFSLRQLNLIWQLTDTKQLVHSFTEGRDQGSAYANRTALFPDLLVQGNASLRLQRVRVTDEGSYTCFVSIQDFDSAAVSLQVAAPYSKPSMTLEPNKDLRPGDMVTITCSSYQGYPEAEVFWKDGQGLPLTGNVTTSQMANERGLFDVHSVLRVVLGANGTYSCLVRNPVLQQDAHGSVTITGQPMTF
The assay can be described thus: phage ELISA, cross-species. The method in brief: as §2

B1: RWC4 (VHH)
VHH: EVQLVESGGGSVQAGGSLRLSCVASEDSTSAMCMGWFRQAPGKEREGVACINPTGEVTWYGDSVKGRFTISRDTVKKIVYLQMNSLKPEDTAMYYCAARVTYGGDWSTDTDYEYWGQGTQVTVSS
notes: Camel VHH; tag not described; also called camel antibody RWC4
As to B1, the “ELISA reading (name not given)” value was 1 in the assay with monkey B7H3-His [1], 0.156 with B7H3 R&D, 0.938 with human B7H3 [4] and 0.0801 with HN3-Fc. In addition, the ELISA signal turned out to be 1.54 with monkey B7H3-His [2], 0.0764 with Non-relevant antigen and 2.5 with human B7H3 [3]. In addition, the binding result in the assay with B7H3 peptide 15, with B7H3 peptide 11 and in the assay with B7H3 peptide 10 was “no binding” in each case.

B2: RWG8 (VHH)
VHH: DVQLVESGGGLVQPGGSLRLSCAASGFTFSRYWMGWFRQAPGKGVEWVSTINSGGGSTYYADSVKGRFTISRDNAKNTLYLQLNNLKTEDTAMYYCAKEQWRTGSRGQGTQVTVSS
notes: Camel VHH; tag not described; also called camel antibody RWG8
On to B2, for which the “ELISA reading (name not given)” value with monkey B7H3-His [1] was 0.197; with B7H3 R&D it was 0.0646; with human B7H3 [4] it was 0.164; with HN3-Fc, 0.05. Moreover, the ELISA signal with monkey B7H3-His [2] was determined as 2.43; with Non-relevant antigen it was 0.0659; with rat B7H3-His, 2.44; with human B7H3 [3], 2.67. Moreover, the binding result with B7H3 peptide 15, with B7H3 peptide 11 and in the assay with B7H3 peptide 10 was “binds” in each case.

B3: RWG4 (VHH)
VHH: QVQLVQSGGGLVQPGGSLRLSCAASGFTFSVYWFYWVRQAPRQGLEWVSTIASNGSTYYSDSVKGRFTISRDNAKNTVYLQMNSLKPEDTAVYYCVSDPDYYSDYERAYKFWAQGTQVTVSS
notes: Camel VHH; tag not described; also called camel antibody RWG4
Turning to B3, the ELISA signal in the assay with monkey B7H3-His [2] was found to be 0.19; with Non-relevant antigen it was 0.14; in the assay with rat B7H3-His, 0.292; in the assay with human B7H3 [3], 1.72.

B4: RWB12 (VHH)
VHH: QVQLVESGGGSVQVGGSLRLSCAASGFTYNSYSVGWFRQAPGKEREGVAAINSGGSSTYYAASVKGRFTISRDNAKNTVYLQMNSLKPEDTAMYYCAARSPSPLTFQTRTLREDSYNYWGQGTQVTVSS
notes: Camel VHH; tag not described; also called camel antibody RWB12
Regarding B4, the “ELISA reading (name not given)” value worked out at 0.188 with monkey B7H3-His [1], 0.0955 with B7H3 R&D, 0.199 with human B7H3 [4] and 0.0533 in the assay with HN3-Fc. Besides, the ELISA signal in the assay with monkey B7H3-His [2] turned out to be 2.31; with Non-relevant antigen it was 0.0597; in the assay with rat B7H3-His, 2.07; with human B7H3 [3], 2.74. The binding result with B7H3 peptide 15, with B7H3 peptide 11 and with B7H3 peptide 10 was “no binding” throughout.
